Paper PMC6048717

Target: α-synuclein wild-type (UniProt P37840)
Assay: seeded fibril elongation kinetics

α-synuclein C-terminally truncated variant AS(1-119) (from UniProt P37840 1-119) (domain or fragment)
elongation rate constant k+ (monomer addition to AS(WT) seed fibril ends): 2780 M⁻¹ s⁻¹
